The target of experiment [1] is T1, PD-L1 on PD-L1 overexpressing cells (human, UniProt Q9NZQ7 19-290).
T1 construct: whole, on cells; also called PD-L1过表达细胞; PD-L1稳定过表达CHO细胞株
In words: cell binding, PD-L1 overexpressing cells, anti-human-IgG-Eu fluorescence.

Experiment [2] has as its target T2, recombinant PD-L1-Fc protein (human, UniProt Q9NZQ7 19-238, limits assumed).
T2 construct: also called 重组PD-L1-Fc蛋白; PD-L1重组蛋白; not shown: Fc part
Put plainly: competition ELISA, coated PD-L1-Fc, competitor biotinylated PD1 0.5ug/ml.

Experiment [3] has as its target T1, PD-L1 on PD-L1 overexpressing cells. Put plainly: inhibition of biotinylated PD1 binding to PD-L1 overexpressing cells, Eu-streptavidin.
In experiment [4] the target is T3, recombinant PD-L1-His protein (human, UniProt Q9NZQ7 19-238).
T3 construct: also called 重组PD-L1-HIS蛋白; PD-L1蛋白; not shown: His tag
T3 sequence (Q9NZQ7 19-238 limits assumed): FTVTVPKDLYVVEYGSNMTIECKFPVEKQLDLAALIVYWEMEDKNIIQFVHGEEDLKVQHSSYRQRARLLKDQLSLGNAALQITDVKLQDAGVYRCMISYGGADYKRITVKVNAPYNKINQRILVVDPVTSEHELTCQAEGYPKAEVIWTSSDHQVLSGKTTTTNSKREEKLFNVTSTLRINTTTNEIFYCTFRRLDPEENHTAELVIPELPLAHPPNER
Put plainly: SPR, BIAcore T200, antibody captured by goat anti-human IgG on CM5 chip, 300nM PD-L1-HIS as analyte.

Experiment [5] addresses T1, PD-L1 on PD-L1 overexpressing cells. Put plainly: cell-based or functional assay.
Experiment [6] deals with T4, recombinant human PDL2 (human, UniProt Q9BQ51 20-220, limits assumed).
T4 construct: also called 人PDL2
T4 sequence (looked up): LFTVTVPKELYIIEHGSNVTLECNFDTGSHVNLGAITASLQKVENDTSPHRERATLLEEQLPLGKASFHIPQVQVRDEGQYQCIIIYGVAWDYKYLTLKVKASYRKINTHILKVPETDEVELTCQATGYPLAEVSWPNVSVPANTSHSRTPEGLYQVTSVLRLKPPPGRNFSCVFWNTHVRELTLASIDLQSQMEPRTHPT
Put plainly: ELISA, coated recombinant protein, anti-human IgG-HRP. Background: ELISA stands for enzyme-linked immunosorbent assay.

The target in experiment [7] is T5, recombinant human B7-2 (human, UniProt P42081 24-247, limits assumed).
T5 construct: also called 人B7-2
T5 sequence (looked up): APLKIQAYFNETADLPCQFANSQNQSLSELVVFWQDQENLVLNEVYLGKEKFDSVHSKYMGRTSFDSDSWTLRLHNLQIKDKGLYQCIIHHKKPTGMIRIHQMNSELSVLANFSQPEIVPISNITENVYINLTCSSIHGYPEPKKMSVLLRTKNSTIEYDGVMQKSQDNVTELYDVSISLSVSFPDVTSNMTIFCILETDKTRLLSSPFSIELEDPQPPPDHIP
Described as above.

The target in experiment [8] is T6, recombinant human B7-1 (human, UniProt P33681 35-242, limits assumed).
T6 construct: also called 人B7-1
T6 sequence (looked up): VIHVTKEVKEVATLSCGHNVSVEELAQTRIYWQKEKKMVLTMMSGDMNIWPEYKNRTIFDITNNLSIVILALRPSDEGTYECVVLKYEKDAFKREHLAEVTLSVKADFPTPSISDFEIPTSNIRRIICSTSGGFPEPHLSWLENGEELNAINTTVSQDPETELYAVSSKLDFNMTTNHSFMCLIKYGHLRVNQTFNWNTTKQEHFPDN
Described as above.

Experiment [9] concerns the target T3, recombinant PD-L1-His protein. In words: ELISA, coated PD-L1-HIS, donkey anti-human IgG-HRP.
Experiment [10] addresses T1, PD-L1 on PD-L1 overexpressing cells. Put plainly: phage cell-binding ELISA on PD-L1 overexpressing cells, anti-M13-HRP.
Experiment [11] deals with T3, recombinant PD-L1-His protein. Put plainly: hybridoma supernatant screen, ELISA on coated PD-L1-His.

T1 sequence (Q9NZQ7 19-290): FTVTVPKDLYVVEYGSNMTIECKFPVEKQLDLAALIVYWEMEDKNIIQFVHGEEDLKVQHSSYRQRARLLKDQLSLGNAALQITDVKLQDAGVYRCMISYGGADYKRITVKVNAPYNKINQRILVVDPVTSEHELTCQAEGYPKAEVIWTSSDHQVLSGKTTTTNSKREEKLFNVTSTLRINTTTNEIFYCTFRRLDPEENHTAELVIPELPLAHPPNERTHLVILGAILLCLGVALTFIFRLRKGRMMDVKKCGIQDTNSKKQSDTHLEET
T2 sequence (Q9NZQ7 19-238 limits assumed): as the sequence (Q9NZQ7 19-238 limits assumed) above

B1: HUL01 (antibody, human IgG1, kappa, N297A, V domains shown)
VH: EVQLQESGPGLVKPSQTLSLTCTVSGDSFSSGYWNWIRQHPGKGLEYIGYVSYTGSTYYIPSLKSRVTISRDTSKNQFSLKLSSVTAADTAVYYCAGYRDWLHGYFDYWGQGTTVTVSS
VL: DIQMTQSPSSLSASVGDRVTITCKASQNVGTNVAWYQQKPGKAPKRLIYSASYRFSGVPSRFSGSGSGTEFTLTISSLQPEDFATYYCQQYNGYPLTFGQGTKLEIKR
notes: expressed in 293C18 cells, Protein A purified; also called clone1; clone2
On to B1, for which the EC50 (commonly the midpoint of the concentration-response curve) in experiment [1] worked out at 0.13 µg/mL. Also, the figures for the IC50 in experiment [2] and in experiment [3] were 0.117 µg/mL and 0.228 µg/mL, respectively.

B2: HUL02 (antibody, human IgG1, kappa, N297A, V domains shown)
VH: EVQLQESGPGLVKPSQTLSLTCTVSGDSFSSGYWNWIRQHPGKGLEYIGYVSYTGSTYYIPSLKSRVTISRDTSKNQFSLKLSSVTAADTAVYYCAGYRDWLHGYFDYWGQGTTVTVSS
VL: DIQMTQSPSSLSASVGDRVTITCKASQNVMDNVAWYQQKPGKAPKRLIYSASYRFSGVPSRFSGSGSGTEFTLTISSLQPEDFATYYCQQYNGYPLTFGQGTKLEIKR
notes: also called clone4; PD-L1抗体HUL02
B2: the Kd (in general, the constant that tells how readily two partners part at equilibrium) in experiment [4] was determined as 0.17 nM. In experiment [5], the “刺激T淋巴细胞IL-2分泌的EC50 (MLR, CD4+ T cells and DC)” value was 0.062 µg/mL. Also, the EC50 in experiment [1] was found to be 0.0695 µg/mL; in [9], 0.0206 µg/mL. The binding result in experiment [6], in experiment [7] and in experiment [8] was “no binding (tested: 1ug/ml)” throughout. In addition, the IC50 (usually the concentration needed to halve the response being measured) in experiment [2] was 0.0716 µg/mL; in [3], 0.115 µg/mL.

B3: HUL01 scFv displayed on phage (scFv)
scFv: EVQLQESGPGLVKPSQTLSLTCTVSGDSFSSGYWNWIRQHPGKGLEYIGYVSYTGSTYYIPSLKSRVTISRDTSKNQFSLKLSSVTAADTAVYYCAGYRDWLHGYFDYWGQGTTVTVSSGGGGSGGGGSGGGGSDIQMTQSPSSLSASVGDRVTITCKASQNVGTNVAWYQQKPGKAPKRLIYSASYRFSGVPSRFSGSGSGTEFTLTISSLQPEDFATYYCQQYNGYPLTFGQGTKLEIK
notes: also called clone1; clone2
Consider B3, for which the binding result in experiment [10] is reported as “binds”.

B4: HUL02 scFv displayed on phage (scFv)
scFv: EVQLQESGPGLVKPSQTLSLTCTVSGDSFSSGYWNWIRQHPGKGLEYIGYVSYTGSTYYIPSLKSRVTISRDTSKNQFSLKLSSVTAADTAVYYCAGYRDWLHGYFDYWGQGTTVTVSSGGGGSGGGGSGGGGSDIQMTQSPSSLSASVGDRVTITCKASQNVMDNVAWYQQKPGKAPKRLIYSASYRFSGVPSRFSGSGSGTEFTLTISSLQPEDFATYYCQQYNGYPLTFGQGTKLEIK
notes: Phage clone from the library built on the HUL01 scFv template; also called clone4
Turning to B4, in experiment [10], the binding result is reported as “binds”.

B5: murine monoclonal antibody specifically binding PD-L1 (hybridoma clone of Example 1) (antibody, V domains shown)
VH: EVQLQESGPSLVQPSQTLSLTCSVTGDSFTSGYWNWIRKFPDNKLQYMGYVSYTGSTYYIPSLKSRISITRDTSKNQYFLQLNSVTSEDTATYFCAGYRDWLHGYFDYWGQGTTLTVSS
VL: DIVMTQSQKFMSTSIGDRVSVTCKASQNVGTNVAWYQLKPGQSPKALIYSASYRFSGVPDRFTGSGSGTEFTLTITNVQSEDLTDYFCQQYNGYPLTFGAGTKLEVK
notes: Mouse IgG from hybridoma supernatant; also called 鼠源特异性结合PD-L1单克隆抗体; 鼠源抗体
Regarding B5, the binding result in experiment [11] is given as “binds”.

(Values after patent publication CN109021107A (JIANGSU RUONAIBO BIOLOGY MEDICAL TECH CO LTD, dated 2018).)
